Assay results reported in patent US20130143318A1 (BOARD OF REGENTS OF THE UNIVERSITY OF OKLAHOMA, published 2013).

Tests used:
human Rrn3 = target: T1, human Rrn3 (human, UniProt Q9NYV6 1-651, limits assumed); test: yeast two-hybrid
T1 construct: Two-hybrid fusion partner not described; also called hRrn3

mouse Rrn3 = target: T2, mouse Rrn3 (mouse, UniProt B2RS91 1-656, limits assumed); test: yeast two-hybrid
T2 construct: Two-hybrid fusion partner not described; also called mRrn3
T2 sequence (B2RS91 whole entry, the tested form may be a part): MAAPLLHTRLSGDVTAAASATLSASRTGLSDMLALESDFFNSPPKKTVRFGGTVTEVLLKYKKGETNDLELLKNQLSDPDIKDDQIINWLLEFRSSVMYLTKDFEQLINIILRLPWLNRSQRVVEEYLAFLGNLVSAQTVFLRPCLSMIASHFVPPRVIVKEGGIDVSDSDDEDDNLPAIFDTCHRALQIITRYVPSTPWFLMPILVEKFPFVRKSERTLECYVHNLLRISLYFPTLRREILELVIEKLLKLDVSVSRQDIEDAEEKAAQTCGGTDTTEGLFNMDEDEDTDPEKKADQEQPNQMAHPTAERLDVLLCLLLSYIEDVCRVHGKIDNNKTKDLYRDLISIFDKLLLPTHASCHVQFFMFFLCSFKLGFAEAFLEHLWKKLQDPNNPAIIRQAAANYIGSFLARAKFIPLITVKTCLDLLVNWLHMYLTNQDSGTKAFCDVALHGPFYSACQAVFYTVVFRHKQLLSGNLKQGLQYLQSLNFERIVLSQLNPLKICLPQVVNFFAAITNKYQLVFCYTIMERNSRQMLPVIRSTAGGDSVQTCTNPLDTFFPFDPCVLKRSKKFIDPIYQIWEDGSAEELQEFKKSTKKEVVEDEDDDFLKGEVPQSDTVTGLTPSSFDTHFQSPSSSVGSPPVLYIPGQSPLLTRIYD

T1 sequence (Q9NYV6 whole entry, the tested form may be a part): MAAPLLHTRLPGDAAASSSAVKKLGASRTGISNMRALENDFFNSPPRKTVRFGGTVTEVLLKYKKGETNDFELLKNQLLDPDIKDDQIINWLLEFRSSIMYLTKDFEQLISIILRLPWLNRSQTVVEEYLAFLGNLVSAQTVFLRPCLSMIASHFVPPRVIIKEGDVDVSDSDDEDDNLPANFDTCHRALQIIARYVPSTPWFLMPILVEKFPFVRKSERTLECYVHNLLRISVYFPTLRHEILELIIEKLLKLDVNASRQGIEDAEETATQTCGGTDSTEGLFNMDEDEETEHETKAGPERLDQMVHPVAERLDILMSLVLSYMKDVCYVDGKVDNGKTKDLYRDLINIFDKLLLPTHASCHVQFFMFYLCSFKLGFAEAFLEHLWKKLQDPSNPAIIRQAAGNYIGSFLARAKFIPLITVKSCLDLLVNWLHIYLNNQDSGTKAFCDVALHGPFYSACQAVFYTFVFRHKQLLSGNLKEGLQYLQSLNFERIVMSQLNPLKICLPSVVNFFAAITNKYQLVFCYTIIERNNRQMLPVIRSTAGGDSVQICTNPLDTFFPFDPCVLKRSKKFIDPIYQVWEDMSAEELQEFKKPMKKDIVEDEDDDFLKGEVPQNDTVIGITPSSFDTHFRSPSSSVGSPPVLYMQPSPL

B1: mouse Rpa43 (43 kDa subunit of RNA polymerase I), wild type (other, UniProt Q78WZ7 1-330, looked up)
chain: MAAGSVESQRSQAASERPVAGQAGVLPCLELPSYAAACALVGSRYSCLVAAPHRRHIALSPRYLSRKRTGIREQLDAELLRYSESLLGVPIAYDNIRVVGELGDIYDDQGHIHLNIEADFVIFCPEPGQTLMGTVNKVSSSHIGCLVHGCFNASIPKPEQMSYEEWQTLEIHVGDELEFDVFRLDSDSAGVFCIRGKLSTTSLQLKHSAVSEDVAETVVEEVVEKTPKKKKKKKDKDTDTCGTVDSVTEVADVTDVTPQEETDIPCSDNVNDFFEEEPKKKKKKKKRHQEDQDPIFQASDSSGYQSDHNKKKKKRKHSEEANFESPKKRQ
notes: also called mRPA43; wild type Rpa43
binding result (human Rrn3): binds | binding result (mouse Rrn3): binds
